Test results reported in PMC5915351.

B1: BmbD (YcaO protein, thiazoline-forming), maltose-binding protein fusion (enzyme)
chain: MREATATECELREVVHRSYPSERTVTVRCTVRPAEGSAQADGYGTATTEAVARAKALSEAVERLVACTPFATVARPPTACADPGTGSGPVPPFPAAGVRTAPEGCAGRVYRPLTGGGPRRVPLYWSSPWTAGAELRAGTLTAAEARLSSTVGWAVAPTPEGALRGALLELTELIDYGVFLHRRLAGPARRPSAGDRTLVVPLGGIGRTPAVLAVAYGRGRLMPATGLGCGATRGEATDRALLELAQAETMWRSNPTAEPAERFFLRRFERWPLLARCATLDFDLPDPRDPPARSGPAGGPGPYDDGPCPASPLEELEAGGIRVWADSGAVDISGPDIPRTRLCFAHVVSDPQPLLGLVRAGIPVFDTGEVRRTLDPSRRPADRPADRGGHRDRSADRGPARRGHEGRRSA
B2: BmbE (YcaO protein, macrolactamidine-forming), maltose-binding protein fusion (enzyme)
chain: MTRPADPQTAPQTEAATETDPLTAVLLDGATKEDVPPERETDIRQALASVGDWLAAEGLTADIRKYGIESAPTYEVRLSEASGALCSRSSGKGLGHRSMASALFESAEHYHLDWRRDPRASEAEFRPGREIAEQATARRSALLGRLGQIMPDAPVLTRTYRPVEEALTGRAGDGEADGPHRHPVFLRDGGYRNWPHPDDDRSFQPLWHYTSSAGYAAGATRHEALVHAVNELIERDAWSYQLARSYFGLPGEGPELRVVEHGTLPAELRELTRTVEEVRGAPVLIVDITCDTGVPAYVVCDARSREDVRLIGSGASPVRTYAVQRALLEYLQVRTMFENGPVDADTEAGQIGTALARYPRHLAAARFDIHRLPHESTAFEADDGLPAATGPERLLRHLVDRLRESGVEAHHRVLTPPGPVTVVDVVAPGLEMFDKARAGYPVLPTGRLGERLRPRGDGGGARR

Biological target: BmbC-C8S/S43C, fluorescein-labelled (bottromycin precursor peptide double variant) (Streptomyces bottropensis)
Assay: fluorescence polarisation

Row | Molecule | Kd [nM]
1 | RRE domain excised from BmbF (radical-SAM methyltransferase) (domain or fragment) | 597
2 | RRE domain excised from BmbB (radical-SAM methyltransferase) (domain or fragment) | 876
3 | B1 | > 50000
4 | B2 | > 50000
